{"source": "the DeepSol protein solubility set", "data": [{"assay": "soluble on expression in E. coli; label from the status in PepcDB or PDB records", "values": [{"sequence": "MAHHHHHHMGTLEAQTQGPGSMFKLTGRKALVTGATGGIGEAIARCFHAQGAIVGLHGTREDKLKEIAADLGKDVFVFSANLSDRKSIKQLAEVAEREMEGIDILVNNAGITRDGLFVRMQDQDWDDVLAVNLTAASTLTRELIHSMMRRRYGRIINITSIVGVVGNPGQTNYCAAKAGLIGFSKALAQEIASRNITVNCIAPGFIKSAMTDKLNEKQKEAIMAMIPMKRMGIGEEIAFATVYLASDEAAYLTGQTLHINGGMAMI", "soluble on expression in E. coli": "soluble"}, {"sequence": "MAHHHHHHMGTLEAQTQGPGSMSMAQQFIDIGANLTDDNYFGNYHGKHYHEEDIDVVLQRAERNGLSHIIITSGCLNDFKKAIEIINKYQNLTNIKLVTTIGVHPTRTNELKQEGYLDELLLLCEKNIDKVVAIGEIGLDYERLQFSDKETQLSGYRTLSILHQKYPYLPFFFHCRKSWSDLCQLNKELGYNGCKGVVHCFDGTEEEMNQILNEGWDIGVTGNSLQSIELLNVMKQIPIERLHIETDCPYCGIKKTSAGFKYLKEKDFGVKVEKYQRNKYVQRRNEPSNIIDIAIIMSSIKHISLFEFVNKVYSNSMNMYFPTMN", "soluble on expression in E. coli": "soluble"}, {"sequence": "MAHHHHHHMGTMGASNDVTDVDDENLLSEELQSSSTGSWSSMGDLQTTESAESDAPSEESDPDERVRRATASFLQWKNKEYVPLSLDEKRAIKEYRKMVAQEEGSYTSTRAQRQRDRAPKLFISREDDWVDLGSPAEGDGLARRRSRKIRFVAAVIASKEVDVHNDGLVVLTDAGEEVPELPRSASILRMSCVKNLTEEAPVFVDDLNSCMMEDEGRSCESAVRWEFPR", "soluble on expression in E. coli": "soluble"}, {"sequence": "MAHHHHHHMHATKSGVTTLSASAGNSDVPVMSAAYEDAARQPNAVFVNVYDIMKSNSWLWSVGLGVHHAGIQVYDKEYQYGRCEEGSGVRAVEPRHSPPHIFREQFFVGQTQLSALEVRKLVARLEQCDTWQGSKYHLVKHNCIHFAQAFCEALLPPHVRVAQMRTALPSTYQSAYMEEVEVDGQQYSLPVLIPPHVSRLSNYATSYLPESALQMLDSMDNPFSTP", "soluble on expression in E. coli": "soluble"}, {"sequence": "MAHHHHHHMHDIYLDNPSTFEILEKMFSLYVNTYPDNELPIGFILMGDFISLKFDYNKNFNDLYIKGFEKLSVLLISKFKLILQNCYLIFIPGKNDPCACKNSIPKMPILPYYIKKFEQNIQSFFSCKKKIIFATNPCRIRHFNKKMIFFRQDILNDLIWSSSINATDDNKNNLQDILISTIVGQSHIYPIPHDNRILKRYSSFLFLYPLPNFICISDNTCNSFISYASDNTSDSIISNSDLSFTKKKTFTVYNVLQHDAKRYVVPI", "soluble on expression in E. coli": "not soluble"}, {"sequence": "MAHHHHHHMHLKIVCLSDEVREMYKNHKTHHEGDSGLDLFIVKDEVLKPKSTTFVKLGIKAIALQYKSNYYYKCEKSENKKKDDDKSNIVNTSFLLFPRSSISKTPLRLANSIGLIDAGYRGEIIAALDNTSDQEYHIKKNDKLVQLVSFTGEPLSFELVEELDETSRGEGGFGSTSNNKY", "soluble on expression in E. coli": "soluble"}, {"sequence": "MAHHHHHHMHPVPQAPYLSSPSPLFPNRGWCWQRPLRIFCPFFSAPLRAASSRRCHRPFLSIRFKKRCCNNPLLLGVVEAILPEPHSPAIPPVILRVFTPPS", "soluble on expression in E. coli": "not soluble"}, {"sequence": "MAHHHHHHMHQLRTFNYVASELGHDEPVLHAVFVTHRCLPPDPPEVNFTTAIPQTVTAASRRTSSDDASIGAAVHVEKTVVLSVEDTLAAPLEVALTVEQELAQLSKKLDAWKVQRLADLQARGGERSPSRLAQMEAAMERRLALRRIEEQDRAQKRVDALLSYLGPRIDKQLQLVAREHDGEEALSSSYARVETTSDVKDSACADKSAASAATPSPPSPRARILCDQQYFVKRQEIALEERGARQAVLRNMWDARRLAHLVEDEVSFRHSIEAREVVWRDRVHSELRASVEMDHV", "soluble on expression in E. coli": "not soluble"}, {"sequence": "MAHHHHHHMICEVLQCNRYPPCCGQYPNGEVNVVLPRSVRGDDLFVLQSLVRCDRVGLSHSGTLMELALMIHAARASSAARITAVIPYISFTESVSSMAAVAEILESMGCQHVITVDMPIDQVEGMFSVPLELISARYEFVQYIANQLTAEGHDFRNITVVAPNGAGVHRAKNFADALMQYKKLSPDEQFVPLCTAVRRQVYRGLQDTVLNINHCGANVGSTRAFEQALLQQEQGICAIQDDGDTTITSEGIDLVGDVQGKLCIVVDTSVDEATEICQTACKLREEGASRIILIATHFIISGRAVERLIESPIDLIVVTDSVEHDEVFKNPHIARRLRVLPIAPLLARAIEKLHTENSLTTLFEK", "soluble on expression in E. coli": "not soluble"}, {"sequence": "MAHHHHHHMILLQLTVVGYLNTGKTSLINSIMNNEIFTNYSHTPLPMIYYKVHKDKNRAFCVEIEDTSVDVDINNFTNMMRKEITTNSKNMKNPVFSYFENPCIPFQAHDPYNSISYGRMAYFLVFDLTNPSTFEYVKMIYLNMSSIYEKYYTLKPFISLVGNKSDLADENCALVREAENFSNEHMVQLWLTSAYTGKNVKKLFLHTINMVYNNTNLWKYDIEESGSESSES", "soluble on expression in E. coli": "not soluble"}, {"sequence": "MAHHHHHHMIRKIIILMFTFFSNIHNEKIYHHKQRRKFLKGPLGYLNRNVIQKKHYNLYAKKFINYKEIQIQRINDYRKRSGVDKNNINYNLRDTYNYHETHLFVRNEVLPTLAKIENENLKEKEKNKEIFRNINDYNSNFTRQTFLQFLMDLYNIFLKIDDLFLENKTYFSILIYNGPMQLTNHLYDDIIYVSSVVENSDDVSPSEYCMEYISHLENLCEENKLSFLAHAYVFYKNFHLSKEHLLKSICKYLNIIKKLKSSTYVADVENFEVSQKCFLHLLFCLNKMSRKWSRWEKDNFLASLHNATNKMMILTKHFEKVKS", "soluble on expression in E. coli": "not soluble"}, {"sequence": "MAHHHHHHMISRINIDGSVNGRFCKKINNNIDCKLNFNTYAKNDTRNMYEMSLEVNKPLYTYNFKSIWQGAWIFNTSYTQLLTKKLQAGVDLTYIASNCASIGSFGLRYNHKNNVLTMQIVRQPNFKSPEFMLNQTHLYKIQYAKKISDRLSLGTELEITPQTKESAMRLGWDYSFRHAKVQGSIDTSGKISVFTQDYSGFGVSGYIDYLNNDYKFGFMMHISPSQEQPQTAA", "soluble on expression in E. coli": "not soluble"}, {"sequence": "MAHHHHHHMIVKVFDYIYISNVYNANDIYELIKLNIGGVLTCFDCTCIEWCHHNDTNVTNKIFYKDIFVNTKKDLIKCDVPIITNKSVNSDIIGGTHQINNYYNEQNNNYHDNTYKEFTQTHKTNIDPSQIKSDHINEERKEHYDYIIFPSDIINNTQCNNNNLKDYIKSMLILKEDAYIDFDVIHMD", "soluble on expression in E. coli": "not soluble"}, {"sequence": "MAHHHHHHMKALKLFTNRICPFCQRVLITAKEKRVTLEEVEVPLGDDMPQWYKELNPRETVPMLQVDGKKCMIESDLISRYIDRISSPENALIGSSPYQRHRVEFFLSEIGDLVKAYFGLVRDPFNEEKRKSVDHNTAYIEGIIAEHQGDGPYFLDDTFSMAEVMVVPFLACFRPVLSYYCGYDIFHEAPRLKKMYVTSMQRTTVKETISKPEEYIIGFKSKVPKSHVTWSLAPGYVLFVNKYSPFSDRPRLACALKNIDLPMLEIDLKQLPSWFRWFNQRETVPTLLTPRGTYVHESQLIVHYLDDGFPEHGPALLPKDADGSYHVRFVESNVDYFMDAMYSLIKDPKNTNAKEEFDWAAGELEKLLAEHQFGEGPFFGGATMNAADVSLLPMLVHLKACTPDLTEGQDLLANYKLLAAAAEAGLTSEAGKKVFLSLSEYSSIYKTFLRPSS", "soluble on expression in E. coli": "soluble"}, {"sequence": "MAHHHHHHMKEYTGNRSVPTTIQNKKKSITEEINKSLHTQDSKNNQNNYEICLSDVSVSTISNSSGIDSDLYEEVIKKIKKEKKRKRKESKRDIYKEKVKYDKKESNSNDENKNDRGNEKDRKNNSDIENNSDSEYINDKEKDRKKRKHIDIDKKKRNKESHHHVNKKKDKNISTRKKRKYTSSLSSESYERRKDKKKKKEKYRNSESSYKSMVDENIPKDPFNPLLLAYEKKEKKKYRKNDEHNDLNDRWKHDRYENTSDDEDINIEKAYENSKPYFDPHEFPKILWKSKAGGVCVPQISDDKK", "soluble on expression in E. coli": "not soluble"}, {"sequence": "MAHHHHHHMKFIPLDSFSALNSLLQGVEAQGCCITMRLEAYTCRHTKEERQIANSIACYQNNVQLTPPISPLPTIGAYAGCTQEALPPLVLGGSAENVAASYSLVSPNEIDDRLVYFVAALNTVYESDGYDFSVLRENDFVRYTEPQFRTEVSSTLQSLPEQCRPAVQRFWPTIEEVVENAESGCEYYEFRCPSCNPLADTTVYARHYFVYNRRKKVLVLLVEYGESNPYRGDDGLPHAGDPTSAWDAESPTYASTPDLGEEGEAYDGGKNRQFYGYY", "soluble on expression in E. coli": "soluble"}, {"sequence": "MAHHHHHHMKGCTLQNNFNHTAPFCGEWNSTILSGSLPPNSGGSSCVINLIKDEVHTVNGNTPRGITITSDTTKDGVFCTMDANGCPFAVDREIERGVNRMKAITKHGTCHMAYATSGGRTCDDSYDRSTRNYHDEEDEEWYEEDEEEGEDSPRIHIIDEHRDGRLLGNILCGMSRAGERISQGLDMLSPLEKRKSGRCAAIESVDYNNTRRRGGGGAETQKGLFQNYYNTGRGRWASRNHCRTNGWDESVSVESCFSHTYNQQWRGREPDYAMMEAHAALDGRSFCEGTYLSSTKLSERKKRVALSGSRVCRDAGKVIVQDNCPYDHKKRHKGRRQCQSPFGEEKIRANDPFDSPKNAITHIKKAGSAGSDDNDSCNPHSKSPGLTGSGSRCSQKETAGRSAEQRNGSGKAASPKTSPHKDELKEKESTVVKKD", "soluble on expression in E. coli": "not soluble"}, {"sequence": "MAHHHHHHMKGKGPIKIVLFGAPGVGKGTFAEILSKKENLKHINMGNILREEIKRKTTIGKEIDKVVTSGNLVGDDLIIRIVKDEIAKVTIQKDCYFKGFILDGFPRNLFQCNELAKITNIDLFINIYMPRHILIKKIMGRRICNDCNRNFNVVHIREDSYDMLPILPPQDCETCKGNPKLQTRSDDSEEIVAHRLNTYELTNSPLINFFKNSNCNFVDFEIKRGLQDFDSFYRIVSQNL", "soluble on expression in E. coli": "not soluble"}, {"sequence": "MAHHHHHHMKGSNTVHTREANANEVHASRQDMRAALLPSDTRILVSRIPASAVSVVSDETRAKGRRRCLVTRTLRRCPEMMSHRRGGHAALVSLLLPLTSHRFCVSPSHVLSIASCAFPCTHSCCVQQGVHPSHLPACLPACRRPRACFVSALCRAHEHAVMFSYNNIIEKGEPLNKEIIDHVLDHVTEFPTPTMVSVGDGKADCIVLENFLTHEECDQLVAACEKVGYTFWLQKNHHDADGEATCDSGSKAVRVVDTIEANFPHLSAKLYERIARVVSLKPKCFSEDMPNAEELFERELAGTWVPHALSENLLFGRYHPGGHFMPHVDGATILDLNTRSFYTLLIYLNDCLHGGETFIFAGEQCNVMYLDEKENQYRGNATQRVGAVYPKKGSAAFFYYNLLHEGAPVLEGHKYICRADLLYHRTPTIFTSEADEKAFKAYQEARLAESHGDAERACQLFQRVRKLSKGVASIFQIE", "soluble on expression in E. coli": "not soluble"}, {"sequence": "MAHHHHHHMKPEGAKGAVVSDDVGGDSANLAYCSDRITLLSRADIEAFTCCSNGAGGGGASNSENHNGGCGGLASEAQSVDPCSTLDTCIAALPMFLQSEALVLRRHEQQFRHHMKELVELTECITLLCDGSLRQHAAAVAGQPAEQSADAQRAESAALHRMLHRAEELERYVRAAAVERLRSAQRMVLAASTTKRREKVGRKSAVRPPKATK", "soluble on expression in E. coli": "not soluble"}, {"sequence": "MAHHHHHHMKPSQPSYDKRAYQTIYPQYLDAELTPHDGRRLTRTQAVDDPTTNEVVEALKELGYTDIFVEPSASFPRSQGSIKYIMPPKGCVKVAIKRPKGEHYIPKSDFDTQTRGVTVEDIPNKMELLRRVSALIKIQHALKKQAEAAAASQTANTRKK", "soluble on expression in E. coli": "soluble"}, {"sequence": "MAHHHHHHMKQVKAAFEANKRVYESVLLTFKGVDGYDVYNCSVPFSYKGKTHIYGRVEKRDIWAASHVRLFEETGKDEFTAVPELSWELEDPYIAKINNEMIFGGTRVRKNGNAILSYYGYFYRGTPDELTYFTRGPGCMKDIRVLQLQDGRLGVFSRPRVGRKASIGFVILNSIDELGAEVIAKAPPLDILSENAWGGVNQAYLLSSGKVGCIGHYSYEDTNEKQQPQSVYVNYAFVLDPQSRAITGAKIIGTKSCYPPCEPKVPLLADCVFASGIVMRSDGKVDLYSGVGDSHEGRITIDYPFKGHGTIIGDLHFPMASSL", "soluble on expression in E. coli": "soluble"}]}]}
